We go through five molecules from paper PMC10589216, “Lactate dehydrogenase D is a general dehydrogenase for D-2-hydroxyacids and is associated with D-lactic acidosis” (Nature Communications, 2023).

Changes are numbered by the printed parent chain.

The target of data set [1] is T1, mLDHD (Mus musculus, UniProt Q7TNG8, H405A).
T1 construct: gene Ldhd
T1 sequence (Q7TNG8 22-484 H405A): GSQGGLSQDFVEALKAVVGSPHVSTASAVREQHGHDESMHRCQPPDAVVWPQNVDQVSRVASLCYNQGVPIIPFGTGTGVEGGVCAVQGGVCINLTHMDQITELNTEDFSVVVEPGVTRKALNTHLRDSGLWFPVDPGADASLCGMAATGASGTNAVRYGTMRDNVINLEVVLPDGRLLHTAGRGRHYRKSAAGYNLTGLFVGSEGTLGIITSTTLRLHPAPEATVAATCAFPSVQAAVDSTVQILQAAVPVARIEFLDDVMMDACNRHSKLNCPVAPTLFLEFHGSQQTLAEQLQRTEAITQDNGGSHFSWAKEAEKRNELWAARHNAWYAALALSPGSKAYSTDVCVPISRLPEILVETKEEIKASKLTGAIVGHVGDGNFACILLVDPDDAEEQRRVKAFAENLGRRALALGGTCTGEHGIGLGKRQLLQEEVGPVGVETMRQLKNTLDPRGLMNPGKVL
The experiment in a line: X-ray crystal structure (soak). The following applies: FAD-bound crystals; no Mn2+ at active site; DL mixture soaked. The class given is binding.

The target of data set [2] is T2, mLDHD (Mus musculus, UniProt Q7TNG8).
T2 construct: gene Ldhd
T2 sequence (Q7TNG8 22-484): T1 sequence (Q7TNG8 22-484 H405A) with A384H
The data set is described as follows: X-ray crystal structure, […] Å. The following applies: non-covalently bound, co-purified from expression host. Type of data set: binding.

Substrate in data set [3]: CCCCCCC(O)C(=O)O
The data set is described as follows: purified protein. The following applies: 50 mM Tris-HCl pH 7.4, 50 μM MnCl2, 200 μM PMS, 100 μM DCIP, 37 °C. The class given is biochemical, Mus musculus.

Substrate in data set [4]: CCCCC(O)C(=O)O
The data set is described as follows: purified protein. Type of data set: biochemical, Mus musculus. Conditions: 50 mM Tris-HCl pH 7.4, 50 μM MnCl2, 200 μM PMS, 100 μM DCIP, 37 °C.

Substrate in data set [5]: CC(C)CC(O)C(=O)O
The experiment in a line: purified protein. Type of data set: biochemical, Mus musculus. Conditions: 50 mM Tris-HCl pH 7.4, 50 μM MnCl2, 200 μM PMS, 100 μM DCIP, 37 °C, racemate, KM calculated on D-isomer concentration.

Substrate in data set [6]: O=C(O)[C@H](O)Cc1ccccc1
The data set is described as follows: purified protein. Type of data set: biochemical, Mus musculus. Conditions: 50 mM Tris-HCl pH 7.4, 50 μM MnCl2, 200 μM PMS, 100 μM DCIP, 37 °C.

Substrate in data set [7]: CC[C@@H](O)C(=O)O
The data set is described as follows: purified protein. Type of data set: biochemical, Mus musculus. The following applies: 50 mM Tris-HCl pH 7.4, 50 μM MnCl2, 200 μM PMS, 100 μM DCIP, 37 °C.

Substrate in data set [8]: CCC(C)C(O)C(=O)O
The data set is described as follows: purified protein. Conditions: 50 mM Tris-HCl pH 7.4, 50 μM MnCl2, 200 μM PMS, 100 μM DCIP, 37 °C. The class given is biochemical, Mus musculus.

Substrate in data set [9]: CCCC(O)C(=O)O
The data set is described as follows: purified protein. The following applies: 50 mM Tris-HCl pH 7.4, 50 μM MnCl2, 200 μM PMS, 100 μM DCIP, 37 °C, racemate, KM calculated on D-isomer concentration. The class given is biochemical, Mus musculus.

Substrate in data set [10]: CC(C)[C@@H](O)C(=O)O
The data set is described as follows: purified protein. Type of data set: biochemical, Mus musculus. The following applies: 50 mM Tris-HCl pH 7.4, 50 μM MnCl2, 200 μM PMS, 100 μM DCIP, 37 °C.

Substrate in data set [11]: C[C@@H](O)C(=O)O
The experiment in a line: purified protein. Conditions: 50 mM Tris-HCl pH 7.4, 50 μM MnCl2, 200 μM PMS, 100 μM DCIP, 37 °C.

With `CC(C)C[C@@H](O)C(=O)O` (mixture of isomers) [D-2-HIC, D-2-hydroxyisocaproate], the “X-ray crystal structure (soak)” value on mLDHD [1] was “mLDHDH405A in complex with FAD and D-2-hydroxyisocaproate (PDB 8JDQ)”.

Take `CCCCCC[C@@H](O)C(=O)O` (mixture of isomers) [D-2-HO, D-2-hydroxyoctanoate]: at mLDHD [1], the “X-ray crystal structure (soak)” value is “mLDHDH405A in complex with FAD and D-2-hydroxyoctanoate (PDB 8JDB)”.

For `CCC[C@@H](O)C(=O)O` (mixture of isomers) [D-2-HV, D-2-hydroxyvalerate], at mLDHD [1], the “X-ray crystal structure (soak)” value was “mLDHDH405A in complex with FAD and D-2-hydroxyvalerate (PDB 8JDN)”.

Consider `Cc1cc2nc3c(=O)[nH]c(=O)nc-3n(C[C@H](O)[C@H](O)[C@H](O)COP(=O)(O)OP(=O)(O)OC[C@H]3O[C@@H](n4cnc5c(N)ncnc54)[C@H](O)[C@@H]3O)c2cc1C` [FAD], for which, on mLDHD [2], the “X-ray crystal structure, 1.70 Å” value is listed as “mLDHD in complex with FAD (PDB 8JDC)”.

B1: mLDHD (Mus musculus) (protein)
chain: T1 sequence (Q7TNG8 22-484 H405A) with A384H
For the molecule B1, the Km is 104.0 ± 9.0 µM in the data set “purified protein [3]”; 34.9 ± 1.6 µM in “purified protein [4]”; 16.4 ± 0.7 µM in the data set “purified protein [5]”; 337.0 ± 44.0 µM in the data set “purified protein [6]”; 62.9 ± 2.8 µM in the data set “purified protein [7]”; 16.5 ± 0.1 µM in the data set “purified protein [8]”. For the same molecule, the Michaelis constant (Km) in the data set “purified protein [9]” was 31.4 ± 2.7 µM; in the data set “purified protein [10]”, 13.9 ± 1.2 µM; in “purified protein [11]”, 122.0 ± 4.5 µM. Also, the Vmax in the data set “purified protein [3]” was 0.409 µmol/min/mg; in “purified protein [4]”, 1.48 µmol/min/mg; in “purified protein [5]”, 0.902 µmol/min/mg; in the data set “purified protein [6]” it was 0.788 µmol/min/mg; in the data set “purified protein [7]”, 1.6 µmol/min/mg; in “purified protein [8]”, 1.01 µmol/min/mg. Moreover, the maximum rate (Vmax) is 1.12 µmol/min/mg in the data set “purified protein [9]”, 1.11 µmol/min/mg in the data set “purified protein [10]” and 1.22 µmol/min/mg in “purified protein [11]”. Further, the catalytic constant (kcat) in “purified protein [3]” was 0.342 ± 0.00833 s⁻¹; in “purified protein [4]” it was 1.233 ± 0.0117 s⁻¹; in the data set “purified protein [5]”, 0.752 ± 0.0133 s⁻¹; in the data set “purified protein [6]”, 0.657 ± 0.03 s⁻¹; in “purified protein [7]” it was 1.33 ± 0.015 s⁻¹; in the data set “purified protein [8]” it was 0.842 ± 0.01 s⁻¹. The values for the catalytic constant (kcat) in “purified protein [9]”, in the data set “purified protein [10]” and in “purified protein [11]” were 0.933 ± 0.0183 s⁻¹, 0.925 ± 0.015 s⁻¹ and 1.02 s⁻¹, respectively. Further, the kcat/Km in “purified protein [3]” is 3280 M⁻¹ s⁻¹; in “purified protein [4]”, 35300 M⁻¹ s⁻¹; in “purified protein [5]”, 45800 M⁻¹ s⁻¹; in the data set “purified protein [6]”, 1950 M⁻¹ s⁻¹; in the data set “purified protein [7]”, 21200 M⁻¹ s⁻¹; in “purified protein [8]”, 51000 M⁻¹ s⁻¹. In addition, the kcat/Km in “purified protein [9]” is 29700 M⁻¹ s⁻¹; in the data set “purified protein [10]” it was 66500 M⁻¹ s⁻¹; in the data set “purified protein [11]”, 8330 M⁻¹ s⁻¹.

For orientation: Km means the concentration of substrate that gives half-maximal velocity. By Vmax is commonly meant the rate approached at saturating substrate. As a reminder, the kcat is the number of substrate molecules converted per active site and unit of time at saturation. Usually kcat/Km stands for the turnover number divided by the Michaelis constant.
